Article PMC2199741

Biological target: biotinylated peptide comprising the NH2-terminal 73 amino acids of GM130 (N73pep) (UniProt Q62839)
Experiment: pull-down

B1: p115, vesicle tethering protein (natural protein)
chain: MNFLRGVMGGQSAGPQHTEAETIQKLCDRVASSTLLDDRRNAVRALKSLSKKYRLEVGIQAMEHLIHVLQTDRSDSEIIAYALDTLYNIISNDEEEEVEENSTRQSEDLGSQFTEIFIKQPENVTLLLSLLEEFDFHVRWPGVRLLTSLLKQLGPPVQQIILVSPMGVSKLMDLLADSREIIRNDGVLLLQALTRSNGAIQKIVAFENAFERLLDIITEEGNSDGGIVVEDCLILLQNLLKNNNSNQNFFKEGSYIQRMKAWFEVGDENPGWSAQKVTNLHLMLQLVRVLVSPTNPPGATSSCQKAMFQCGLLQQLCTILMATGIPADILTETINTVSEVIRGCQVNQDYFASVNAPSNPPRPAIVVLLMSMVNERQPFVLRCAVLYCFQCFLYKNEKGQGEIVATLLPSTIDATGNSVSAGQLLCGGLFSTDSLSNWCAAVALAHALQGNATQKEQLLRVQLATSIGNPPVSLLQQCTNILSQGSKIQTRVGLLMLLCTWLSNCPIAVTHFLHNSANVPFLTGQIAENLGEEEQLVQGLCALLLGISIYFNDNSLENYTKEKLKQLIEKRIGKENYIEKLGFISKHELYSRASQKPQPNFPSPEYMIFDHEFTKLVKELEGVITKAIYKSSEEDKKEEEVKKTLEQHDNIVTHYKNMIREQDLQLEELKQQVSTLKCQNEQLQTAVTQQASQIQQHKDQYNLLKVQLGKDNHHQGSHSDGAQVNGIQPEEISRLREEIEELRSHQVLLQSQLAEKDTVIENLRSSQVSGMSEQALATCSPRDAEQVAELKQELSALKSQLCSQSLEITRLQTENSELQQRAETLAKSVPVEGESELVTAAKTTDVEGRLSALLQETKELKNEIKALSEERTAIQKQLDSSNSTIAILQTEKDKLYLEVTDSKKEQDDLLVLLADQDQKILSLKSKLKDLGHPVEEEDESGDQEDDDDELDDGDRDQDI
  percent of p115 depleted from cytosol: > 95%
